Test results published in the RNAGym collection of RNA variant scans (doi:10.1073/pnas.2313332121).

B1: TPR t1 (parent)
chain: GACCAAUCUGCCCUCAGAGCUCGAGAACAUCUUCGGAUGCAGAGGAGGCAGGCUUCGGUGGCGCGAUAGCGCCAACGUCCUCAACCUCCAAUGCAUCCCACCACAUGAUGAUGCCUGAAGAGCCUUGGUUUUUUG

Variants of: B1
Assay: polymerase ribozyme fitness, log enrichment relative to wild type (log ratio); higher = more active; in vitro selection for triplet polymerase activity
How it was run: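 Libraries of mutants in each subunit of a heterodimeric triplet polymerase ribozyme were generated by PCR and transcribed. In triplicate, each went through one in vitro selection round: annealing with biotinylated primer, partner subunit and triplets; frozen incubation at −7 °C; gel excision of extended constructs; streptavidin-bead capture; RT-PCR. Fitness, taken from Illumina sequencing of input and output libraries, is the logarithm of a genotype's enrichment over wild-type enrichment, averaged across replicates with inverse-variance weights. The logarithm is base 2, and genotypes needed ≥10 input reads and ≥1 read per output to be kept.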

Row | Variant | polymerase ribozyme fitness (log ratio)
1 | G110U U112C | -2.02
2 | G113A U125C | -1.17
3 | C123A U125G | -0.261
4 | G113U U116A | -4.64
5 | C104A C123U G128U U130A | -1.35
6 | G127U U130G | -0.841
7 | G117A G120U | -1.9
8 | U106A G122A | -0.693
9 | C114G G128U U129A | -5.24
10 | G107A U112C | -3.85
11 | C101U A111C U116G | -2.46
12 | C114G G117U | -3.8
13 | C114G G117A | -5.27
14 | A105C U109A U133C | -5.16
15 | U112G G135U | -1.01
16 | G113A C114A U125A U133A | -3.52
17 | C104A G110U | -3.77
18 | G117C | -3.16
19 | G117U | -2.21
20 | G117A | -1.1
21 | G113C U126C | -2.46
22 | C101G G122A | -2.93
23 | A121G G135U | 0.495
24 | G113A U130A | -2.33

Row | Variant | polymerase ribozyme fitness (log ratio)
25 | G113A U130C | -1.16
26 | G120A G135A | -0.0112
27 | G110A G120U | -1.91
28 | G110A A121U | 0.16
29 | C104U U106A U109A C114U C123U | -6.98
30 | A108G U116A C123U | -6.42
31 | C101U C124A | 1.17
32 | G120C U126A | -0.0406
33 | A111C G117C | -4.16
34 | U131A U132C | 0.142
35 | U126C | -0.485
36 | U126G | -1.7
37 | U126A | -1.69
38 | U129G U132A | -3.7
39 | C101U U106C A111C | -0.324
40 | C104A U134G | -1.17
41 | C101U C123A | 0.0488
42 | U112G U130A | 0.613
43 | A111G G122U U129C | -5.05
44 | C114A A119U | -3.28
45 | U112C C124G | 1.79
46 | U112G G127A | -1.12
47 | U130A U133A | -1.4
48 | G110C C124A | -3.32

Row | Variant | polymerase ribozyme fitness (log ratio)
49 | A118U G127C | -1.35
50 | G120U U129G | -1.17
51 | C102U A121U | 0.0802
52 | A103U U130A | -4.14
53 | A103C U109G U130C | -5.77
54 | A121C G122U | 0.743
55 | U106A U133G | -0.54
56 | C101U U109C | -3.93
57 | U112A G120C | -0.182
58 | G113A G128C | -2.85
59 | G110U G120U | -2.75
60 | A121U C123U | 2.27
61 | U112A G113A | -0.782
62 | U112C A121G | 2.63
63 | G113U C115A | -4.42
64 | G110A G127A U134C | -3.29
65 | C102U U132A | -1.83
66 | G117C G135U | -3.37
67 | U112G C123A | -2
68 | G113U G120A | -2.2
69 | C124U G127A G135U | -0.796
70 | U106A U109A | -3.73
71 | C115A A119U | -1.26
72 | G113U C124A | -1.53

Row | Variant | polymerase ribozyme fitness (log ratio)
73 | U106A U112G G117C | -5.9
74 | A118G C124G | -0.0684
75 | C124G U133A | 0.826
76 | C102U U125A U129C | -3.71
77 | G110A C115A | -1.87
78 | G113A U131A | -0.84
79 | C115U G120C | -0.978
80 | C115A | -0.202
81 | C115U | -0.935
82 | C115G | -1.59
83 | G110A G113U | -5.23
84 | G120A G128A | -0.497
85 | G117A A119G | 1.29
86 | A103G U130A | -5.53
87 | A108G U112A | -2.86
88 | G107U C114A | -7.09
89 | C115G U125A | -1.66
90 | G120A C123A | -0.268
91 | C114U G122A | -2.83
92 | U129A U132A | -1.56
93 | G110A C123U | -0.322
94 | U130A G135U | -0.655
95 | G110A U132A | -1.37
96 | U109G G113A G127C | -6.26

Row | Variant | polymerase ribozyme fitness (log ratio)
97 | U106A G110U | -0.605
98 | C114A U131C | -1.66
99 | A111C G127A | -2.45
100 | A119G G120A | 1.35
101 | U109G C114G | -4.93
102 | C104A G117A | -2.41
103 | C101G G117A | -3.52
104 | U109A G135U | -4.82
105 | A118C C124G | -0.56
106 | U106A G107U U116C | -7.47
107 | C102U G128C U129A | -4.82
108 | C124G U125A U134C | 0.622
109 | A103U C124G U131C | -2.6
110 | C104A G117C U131C | -4.93
111 | A111C A119U U131C | 0.0159
112 | G120U U131A | -1.19
113 | C104A G120U G127C | -1.76
114 | U106A G127C | -3.2
115 | C104U G117A | -0.723
116 | C104A G120C G127A U129A | -2.25
117 | G107A C114G G128A | -7.24
118 | U109A U130A | -5.09
119 | G110A G122U | -1.41
120 | G110U G135U | -3.12

Row | Variant | polymerase ribozyme fitness (log ratio)
121 | U116C A119G | 1.96
122 | U109A C123U | -3.85
123 | U109A C123A | -6.83
124 | G113U A119G | -1.66
125 | G113U A119C | -5.27
126 | G127C G128U U131C | -1.37
127 | C104G C114G G120A U126C U133G | -5.9
128 | A111G G117C | -4.52
129 | G128C U131A | -1.91
130 | G113A U126G | -3.39
131 | U116C U132C | -1.33
132 | A105G U112C | -0.683
133 | A108G G122U | -1.78
134 | A118G G122U | 0.311
135 | A103U G120C C124U | -4.96
136 | C104U U130G | -0.0774
137 | C115U U129A | -3.34
138 | A105U G110U | -6.12
139 | U106C G107U | -4.63
140 | C115U A118U | -1.41
141 | A108U U129A | -6.43
142 | A111U U112G G122A | -2.25
143 | C102U U106C G113A A121C U131G | -3.34
144 | U116A A121U | -0.72

Row | Variant | polymerase ribozyme fitness (log ratio)
145 | G107A G113C | -5.82
146 | U106C C123G U133G | -1.72
147 | A111C | 0.388
148 | A111U | -2.62
149 | A111G | 0.509
150 | G113C G122A G135U | -4.5
151 | G120U U130C | 0.002
152 | A111C G122C | -1.39
153 | U109G C115A | -7.19
154 | U109G G113A | -5.72
155 | A108U C124A | -4.18
156 | G113U U133A | -3.57
157 | G120A C124A | 2.09
158 | U106C U109A A121U | -4.69
159 | A105C C114U G120C | -2.29
160 | C104A G128A | -3.67
161 | A105G U106A G120U U133C | 0.414
162 | G107U A121U G128C | -4.77
163 | U106A C124A G128A | 0.53
164 | A105G G120C | -1.97
165 | A105G G120U | -2.44
166 | G117C U131G | -4.4
167 | A111G G120A | -0.416
